Test results taken from publication PMC11073785, “YeeD is an essential partner for YeeE-mediated thiosulfate uptake in bacteria and regulates thiosulfate ion decomposition” (PLOS Biology, 2024).

T1: StYeeD (Winmispira thermophila, UniProt G0GAP7)
T1 construct: gene Spith_0735; expressed in E. coli C41(DE3)
T1 sequence (G0GAP7 1-80): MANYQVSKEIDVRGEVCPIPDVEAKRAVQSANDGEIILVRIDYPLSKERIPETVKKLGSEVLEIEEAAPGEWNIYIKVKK

T2: Spirochaeta thermophila YeeE (Spirochaeta thermophila, UniProt G0GAP6 1-328)
T2 construct: YeeE of Spirochaeta thermophila, residues 1-328, UniProt G0GAP6; Membrane protein, kept in 0.1% DDM; The His tag was removed with TEV(S219V) protease; also called StYeeE; TsuA; source: E. coli C41(DE3), purified from the membrane fraction in DDM (Ni-NTA, TEV cleavage, Superdex 200)
T2 sequence (looked up): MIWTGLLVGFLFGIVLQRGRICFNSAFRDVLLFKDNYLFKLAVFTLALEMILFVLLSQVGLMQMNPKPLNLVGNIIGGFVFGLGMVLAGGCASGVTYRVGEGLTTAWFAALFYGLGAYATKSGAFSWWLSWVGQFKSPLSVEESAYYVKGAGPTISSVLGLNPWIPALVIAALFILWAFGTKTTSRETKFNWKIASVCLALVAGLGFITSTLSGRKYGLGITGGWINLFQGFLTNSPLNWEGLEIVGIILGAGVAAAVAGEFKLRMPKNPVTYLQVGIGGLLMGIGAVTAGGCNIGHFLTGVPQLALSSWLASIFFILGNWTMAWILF


Each molecule was assayed against T1, StYeeD (assay: H2S release with fluorescent probe HSip-1; adduct by MALDI-TOF MS). Details: 500 μM thiosulfate, 24.1 μM YeeD, 70 μM β-ME, pH 8.0, 37°C; covalent (C17).
Type: biochemical

Molecule | H2S release with fluorescent probe HSip-1; adduct by MALDI-TOF MS
O=S(O)(O)=S [thiosulfate ion] | suggesting that YeeD catalyzes the decomposition of thiosulfate as a substrate

The molecules below were run on O=S(O)(O)=S (assay: solid-supported membrane electrophysiology of proteoliposomes, negative peak area). Details: transport, Na2S2O3 1.25-40 mM exchanged against equal Na2SO4, pH 6.7, Michaelis-Menten fit.
Type: biochemical, Winmispira thermophila

Molecule | Km [µM]
StYeeE (Winmispira thermophila DSM 6578) (protein, 1-328 aa with C-terminal …-His8, His-tag removed by TEV; expressed in E. coli C41(DE3), purified in DDM, reconstituted in E. coli total lipid liposomes) MIWTGLLVGFLFGIVLQRGRICFNSAFRDVLLFKDNYLFKLAVFTLALEMILFVLLSQVGLMQMNPKPLNLVGNIIGGFVFGLGMVLAGGCASGVTYRVGEGLTTAWFAALFYGLGAYATKSGAFSWWLSWVGQFKSPLSVEESAYYVKGAGPTISSVLGLNPWIPALVIAALFILWAFGTKTTSRETKFNWKIASVCLALVAGLGFITSTLSGRKYGLGITGGWINLFQGFLTNSPLNWEGLEIVGIILGAGVAAAVAGEFKLRMPKNPVTYLQVGIGGLLMGIGAVTAGGCNIGHFLTGVPQLALSSWLASIFFILGNWTMAWILF | 626.1

Target: the molecule itself
Assay: SEC; purified His-tagged StYeeD(WT) on Superdex 200 Increase 10/300 GL, 10 mM Tris-HCl pH 8.0, 300 mM NaCl; two peaks compared with gel filtration markers
Details: not given

Molecule | stoichiometry N
Spirochaeta thermophila YeeD (WT), His6-tagged (natural protein, UniProt G0GAP7 1-80, looked up, YeeD of Spirochaeta thermophila, residues 1-80, UniProt G0GAP7; 11.3 kDa with the tag; As purified, C17 is partly modified (mass spectrometry: -SH, -S-O2-/-S-S-, -S-SO3-); also called StYeeD; StYeeD(WT); source: E. coli C41(DE3), purified (Ni-NTA, Superdex 200)) MANYQVSKEIDVRGEVCPIPDVEAKRAVQSANDGEIILVRIDYPLSKERIPETVKKLGSEVLEIEEAAPGEWNIYIKVKK | 2

What follows are molecules tested against T2, Spirochaeta thermophila YeeE (assay: BLI; StYeeD-His6 (4.82 μM) loaded on a Ni-NTA biosensor, 11.05 μM StYeeE in solution; Octet N1, room temperature; 20 mM Tris-HCl pH 8.0, 300 mM NaCl, 0.1% DDM, 1 mM β-ME; 120 s association, 120 s dissociation; local fitting; 3 measurements. WT was also run with 300 mM Na2SO4 (binding similar) or 300 mM Na2S2O3 (binding significantly decreased)). Details: both partners purified.

Kd [µM] | koff [s⁻¹] | kon [M⁻¹ s⁻¹] | Molecule
1.6 ± 0.2 | 0.027 ± 0.0029 | 17000 ± 2900 | Spirochaeta thermophila YeeD (WT), His6-tagged (natural protein, UniProt G0GAP7 1-80, looked up, YeeD of Spirochaeta thermophila, residues 1-80, UniProt G0GAP7; 11.3 kDa with the tag; As purified, C17 is partly modified (mass spectrometry: -SH, -S-O2-/-S-S-, -S-SO3-); also called StYeeD; StYeeD(WT); source: E. coli C41(DE3), purified (Ni-NTA, Superdex 200)) MANYQVSKEIDVRGEVCPIPDVEAKRAVQSANDGEIILVRIDYPLSKERIPETVKKLGSEVLEIEEAAPGEWNIYIKVKK
1.7 ± 0.074 | 0.03 ± 0.0013 | 18000 ± 260 | StYeeD(E63A), His6-tagged (natural protein, Spirochaeta thermophila, UniProt G0GAP7 1-80, looked up, YeeD of Spirochaeta thermophila, residues 1-80, UniProt G0GAP7, with E63A; source: E. coli C41(DE3), purified (Ni-NTA, Superdex 200)) MANYQVSKEIDVRGEVCPIPDVEAKRAVQSANDGEIILVRIDYPLSKERIPETVKKLGSEVLAIEEAAPGEWNIYIKVKK
4.3 ± 0.61 | 0.037 ± 0.0019 | 8900 ± 1100 | StYeeD(K8A), His6-tagged (natural protein, Spirochaeta thermophila, UniProt G0GAP7 1-80, looked up, YeeD of Spirochaeta thermophila, residues 1-80, UniProt G0GAP7, with K8A; source: E. coli C41(DE3), purified (Ni-NTA, Superdex 200)) MANYQVSAEIDVRGEVCPIPDVEAKRAVQSANDGEIILVRIDYPLSKERIPETVKKLGSEVLEIEEAAPGEWNIYIKVKK
20 ± 2.1 | 0.16 ± 0.017 | 8200 ± 950 | StYeeD(Y43A), His6-tagged (natural protein, Spirochaeta thermophila, UniProt G0GAP7 1-80, looked up, YeeD of Spirochaeta thermophila, residues 1-80, UniProt G0GAP7, with Y43A; source: E. coli C41(DE3), purified (Ni-NTA, Superdex 200)) MANYQVSKEIDVRGEVCPIPDVEAKRAVQSANDGEIILVRIDAPLSKERIPETVKKLGSEVLEIEEAAPGEWNIYIKVKK
5.4 ± 0.3 | 0.032 ± 0.00058 | 5800 ± 330 | StYeeD(V39A), His6-tagged (natural protein, Spirochaeta thermophila, UniProt G0GAP7 1-80, looked up, YeeD of Spirochaeta thermophila, residues 1-80, UniProt G0GAP7, with V39A; source: E. coli C41(DE3), purified (Ni-NTA, Superdex 200)) MANYQVSKEIDVRGEVCPIPDVEAKRAVQSANDGEIILARIDYPLSKERIPETVKKLGSEVLEIEEAAPGEWNIYIKVKK
1.2 ± 0.1 | 0.035 ± 0.004 | 29000 ± 1600 | StYeeD(L45A), His6-tagged (natural protein, Spirochaeta thermophila, UniProt G0GAP7 1-80, looked up, YeeD of Spirochaeta thermophila, residues 1-80, UniProt G0GAP7, with L45A; source: E. coli C41(DE3), purified (Ni-NTA, Superdex 200)) MANYQVSKEIDVRGEVCPIPDVEAKRAVQSANDGEIILVRIDYPASKERIPETVKKLGSEVLEIEEAAPGEWNIYIKVKK
17 ± 23 | 0.12 ± 0.16 | 9000 ± 1400 | StYeeD(R49A), His6-tagged (natural protein, Spirochaeta thermophila, UniProt G0GAP7 1-80, looked up, YeeD of Spirochaeta thermophila, residues 1-80, UniProt G0GAP7, with R49A; source: E. coli C41(DE3), purified (Ni-NTA, Superdex 200)) MANYQVSKEIDVRGEVCPIPDVEAKRAVQSANDGEIILVRIDYPLSKEAIPETVKKLGSEVLEIEEAAPGEWNIYIKVKK
5.6 ± 0.86 | 0.093 ± 0.023 | 17000 ± 1600 | StYeeD(V16A), His6-tagged (natural protein, Spirochaeta thermophila, UniProt G0GAP7 1-80, looked up, YeeD of Spirochaeta thermophila, residues 1-80, UniProt G0GAP7, with V16A; source: E. coli C41(DE3), purified (Ni-NTA, Superdex 200)) MANYQVSKEIDVRGEACPIPDVEAKRAVQSANDGEIILVRIDYPLSKERIPETVKKLGSEVLEIEEAAPGEWNIYIKVKK
9.5 ± 4.2 | 0.071 ± 0.033 | 7500 ± 1300 | StYeeD(E15A), His6-tagged (natural protein, Spirochaeta thermophila, UniProt G0GAP7 1-80, looked up, YeeD of Spirochaeta thermophila, residues 1-80, UniProt G0GAP7, with E15A; source: E. coli C41(DE3), purified (Ni-NTA, Superdex 200)) MANYQVSKEIDVRGAVCPIPDVEAKRAVQSANDGEIILVRIDYPLSKERIPETVKKLGSEVLEIEEAAPGEWNIYIKVKK
4.5 ± 6.2 | 0.14 ± 0.2 | 17000 ± 10000 | StYeeD(E48A), His6-tagged (natural protein, Spirochaeta thermophila, UniProt G0GAP7 1-80, looked up, YeeD of Spirochaeta thermophila, residues 1-80, UniProt G0GAP7, with E48A; source: E. coli C41(DE3), purified (Ni-NTA, Superdex 200)) MANYQVSKEIDVRGEVCPIPDVEAKRAVQSANDGEIILVRIDYPLSKARIPETVKKLGSEVLEIEEAAPGEWNIYIKVKK
1.7 ± 0.055 | 0.032 ± 0.003 | 18000 ± 1300 | StYeeD(L38A), His6-tagged (natural protein, Spirochaeta thermophila, UniProt G0GAP7 1-80, looked up, YeeD of Spirochaeta thermophila, residues 1-80, UniProt G0GAP7, with L38A; source: E. coli C41(DE3), purified (Ni-NTA, Superdex 200)) MANYQVSKEIDVRGEVCPIPDVEAKRAVQSANDGEIIAVRIDYPLSKERIPETVKKLGSEVLEIEEAAPGEWNIYIKVKK
4.6 ± 0.22 | 0.027 ± 0.0021 | 6000 ± 580 | StYeeD(E9A), His6-tagged (natural protein, Spirochaeta thermophila, UniProt G0GAP7 1-80, looked up, YeeD of Spirochaeta thermophila, residues 1-80, UniProt G0GAP7, with E9A; source: E. coli C41(DE3), purified (Ni-NTA, Superdex 200)) MANYQVSKAIDVRGEVCPIPDVEAKRAVQSANDGEIILVRIDYPLSKERIPETVKKLGSEVLEIEEAAPGEWNIYIKVKK
